According to paper PMC3292583, “Poplar GTL1 Is a Ca2+/Calmodulin-Binding Transcription Factor that Functions in Plant Water Use Efficiency and Drought Tolerance”:

T1: PtaGTL1-C (C-terminal trihelix DNA-binding fragment) (Populus tremula x P. alba (clone …, UniProt G8G9Q9 528-779))
T1 sequence: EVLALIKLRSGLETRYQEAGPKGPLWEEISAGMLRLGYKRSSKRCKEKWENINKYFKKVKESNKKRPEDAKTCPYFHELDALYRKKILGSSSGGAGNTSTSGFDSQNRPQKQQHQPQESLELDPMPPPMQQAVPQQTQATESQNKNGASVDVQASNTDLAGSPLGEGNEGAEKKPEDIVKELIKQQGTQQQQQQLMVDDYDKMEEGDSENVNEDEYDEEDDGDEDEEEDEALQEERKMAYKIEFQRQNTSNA


Key:
[1] = molecular target: T1, PtaGTL1-C (C-terminal trihelix …); experiment: EMSA; text: mutation inhibited the interaction; LightShift Chemiluminescent EMSA kit, per cited earlier method; 200 ng biotin probe, 1000 ng competitor; binding buffer, salt, pH and temperature not stated (probes annealed in 10 mM Tris-HCl, 1 mM EDTA, pH 8.0); settings: protein: recombinant; tags: N-terminal 6xHis (pDEST17); label: 3' biotin (probe); blunt
[2] = molecular target: T1, PtaGTL1-C (C-terminal trihelix …); experiment: EMSA; LightShift Chemiluminescent EMSA kit, per cited earlier method; 200 ng biotin probe, 1000 ng competitor; binding buffer, salt, pH and temperature not stated (probes annealed in 10 mM Tris-HCl, 1 mM EDTA, pH 8.0); settings: protein: recombinant; tags: N-terminal 6xHis (pDEST17); label: 3' biotin (probe); blunt

Binder	binding result [1]	binding result [2]
PtSDD1m (GT2 box GGTAAT to CCTAAT) (dsDNA) DNA 1: TTCGTGAATATCCTAATGATTAT DNA 2: ATAATCATTAGGATATTCACGAA	no binding	
AtSDD1 promoter fragment with GT3 box (dsDNA) DNA 1: TTCTTTGGCTTGGTAAAACTTCAATGGA DNA 2: TCCATTGAAGTTTTACCAAGCCAAAGAA		binds
AtSDD1m (GT3 box GGTAAA to CCTAAA) (dsDNA) DNA 1: TTCTTTGGCTTCCTAAAACTTCAATGGA DNA 2: TCCATTGAAGTTTTAGGAAGCCAAAGAA		no binding
